The experiment has as its target T1, VP2 from Rotavirus A WA strain (Rotavirus A WA strain, UniProt P11231 1-890).
T1 construct: Expressed in N. benthamiana from construct 1710 and purified as part of rotavirus-like particles; also called RVA(WA) VP2; VP2(opt)
T1 sequence: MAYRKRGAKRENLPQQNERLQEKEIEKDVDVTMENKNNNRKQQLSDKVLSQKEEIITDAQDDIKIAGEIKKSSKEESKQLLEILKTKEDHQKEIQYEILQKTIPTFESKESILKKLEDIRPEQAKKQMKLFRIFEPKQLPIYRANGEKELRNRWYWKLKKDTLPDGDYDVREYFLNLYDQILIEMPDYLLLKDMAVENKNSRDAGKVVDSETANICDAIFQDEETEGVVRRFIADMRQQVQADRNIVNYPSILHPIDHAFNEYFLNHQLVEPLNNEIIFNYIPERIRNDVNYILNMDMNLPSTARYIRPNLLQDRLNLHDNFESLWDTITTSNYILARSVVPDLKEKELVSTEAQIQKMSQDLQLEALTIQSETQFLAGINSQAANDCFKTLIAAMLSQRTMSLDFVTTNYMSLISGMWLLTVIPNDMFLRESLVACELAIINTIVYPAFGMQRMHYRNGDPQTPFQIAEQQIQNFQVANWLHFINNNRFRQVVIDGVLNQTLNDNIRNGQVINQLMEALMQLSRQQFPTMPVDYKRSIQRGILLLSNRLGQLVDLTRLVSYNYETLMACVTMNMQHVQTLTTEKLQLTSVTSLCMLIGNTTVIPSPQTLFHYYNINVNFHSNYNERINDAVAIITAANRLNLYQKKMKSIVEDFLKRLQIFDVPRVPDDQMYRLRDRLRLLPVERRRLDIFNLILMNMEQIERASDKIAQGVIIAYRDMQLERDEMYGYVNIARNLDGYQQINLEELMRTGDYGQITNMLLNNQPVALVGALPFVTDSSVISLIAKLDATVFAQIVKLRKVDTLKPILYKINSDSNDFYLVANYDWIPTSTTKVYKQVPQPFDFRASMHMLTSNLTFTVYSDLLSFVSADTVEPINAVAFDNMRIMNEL
The experiment in a line: co-expression in N. benthamiana, iodixanol gradient, cryo-electron microscopy.

B1: VP6 from Rotavirus A WA strain (other)
chain: MEVLYSLSKTLKDARDKIVEGTLYSNVSDLIQQFNQMIVTMNGNDFQTGGIGNLPVRNWTFDFGLLGTTLLNLDANYVENARTIIEYFIDFIDNVCMDEMARESQRNGVAPQSEALRKLAGIKFKRINFDNSSEYIENWNLQNRRQRTGFVFHKPNIFPYSASFTLNRSQPMHDNLMGTMWLNAGSEIQVAGFDYSCAINAPANIQQFEHIVQLRRALTTATITLLPDAERFSFPRVINSADGATTWFFNPVILRPNNVEVEFLLNGQIINTYQARFGTIIARNFDAIRLLFQLMRPPNMTPAVNALFPQAQPFQHHATVGLTLRIESAVCESVLADANETLLANVTAVRQEYAIPVGPVFPPGMNWTELITNYSPSREDNLQRVFTVASIRSMLIK
notes: Expressed in N. benthamiana from construct 1713 and purified as part of rotavirus-like particles; also called RVA(WA) VP6; VP6(opt)
Consider B1, for which the binding result was “binds”.

For the origin of these results see patent US20150216961A1 (MEDICAGO, published 2015).
